Assay results: patent US12643926B2, “LysM receptor motifs” (Aarhus Universitet, priority 2020, dated 2026)

Assay: Biolayer interferometry of LYS11 ectodomains binding to CO5
Details: BLI; result in words
Protocol: Binding of L. japonicus LYS11 ectodomain and domain-swapped versions of L. japonicus LYS11 ectodomain to ligands was measured on an Octet RED 96 system (Pall ForteBio). The ligands used were CO5 chitin oligomer (corresponding to the backbone of S. meliloti Nod factor LCO-V), M. loti Nod factor LCO, and S. meliloti Nod factor LCO. S. meliloti LCO consists of a tetrameric/pentameric N-acetylglucosamine backbone that is O-sulfated on the reducing terminal residue, O-acetylated on the non-reducing terminal residue, and mono-N-acylated by unsaturated C16 acyl groups. M. loti LCO is a pentameric N-acetylglucosamine with a cis-vaccenic acid and a carbamoyl group at the non-reducing terminal residue together with a 2,4-O-acetylfucose at the reducing terminal residue. Biotinylated ligand conjugates were immobilized on streptavidin biosensors (kinetic quality, Pall ForteBio) at a concentration of 125-250 nM for 5 minutes. Data analysis was performed in GraphPad Prism 6 software (GraphPad Software, Inc.). Equilibrium dissociation constants derived from the steady-state were determined by applying a non-linear regression (one site, specific binding) to the response at equilibrium plotted against the protein concentration. Kinetic parameters were determined by non-linear regression (association followed by dissociation) on the subtracted data. […]

B1: L. japonicus LYS11 ectodomain: L. japonicus LYS11 ectodomain (residues 26-234 of SEQ ID NO: 255), 6xHis tag, insect cell expressed (protein)
chain: LAQLSHTNGTNFSCPVDSPPSCDTYVTYFAQSPNFLTLTSISDLFDTSPLSIARASNIKDENQNLVPGQLLLVPVTCACSGSNSFSNISHMIKEGESYYYLSTTSYENLTNWETVQDSNPNYNPYLLPVGIKVVIPLFCKCPSNYHLNKGIEYLITYVWHNNDNVSLVASKFGVSTQDIISENNFSHQNFTAATNFPILIPVTQLPSLS
modifications: 6xHis tag; Xaa = hydrophobic patch residues; Xaa = residues immediately adjacent to hydrophobic patch residues
- binding to CO5 (chitin): able to bind CO5
